The supplement of paper PMC7877785
± gives the uncertainty stated by the source.

Experiment: self-splicing fitness, log relative to wild type (ln ratio); higher = more splicing; Tetrahymena group I intron in knt gene, E. coli kanamycin selection, DiMSum; sequences stand for … in CUCUCU…GGAGGGAAAAGUUAUCAGGCAUGCACCUGGUAGCUAGUCUUUAAACCAAUAGAUUGCAUCGGUUUAAAAGGCAAGACCGUCAAAUUGCGGGAAAGGGGUCAACAGCCGUUCAGUACCAAGUCUCAGGGGAAACUUUGAGAUGGCCUUGCAAAGGGUAUGGUAAUAAGCUGACGGACAUGGUCCUAACCACGCAGCCAAGUCCUAAGUCAACAGAUCUUCUGUUGAUAUGGAUGCAGUUCACAGACUAAAUGUCGGUCGGGGAAGAUGUAUUCUUCUCAUAAGAUAUAGUCGGACCUCUCCUUAAUGGGAGCUAGCGGAUGAAGUGAUGCAACACUGGAGCCGCUGGGAACUAAUUUGUAUGCGAAAGUAUAUUGAUUAGUUUUGGAGUACUCGUGGUCG
In short: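 Pooled colonies went to amplicon sequencing on an Illumina HiSeq 2500 after six replicate transformations. The plates were LB agar with 100 μg/mL carbenicillin, 50 μM IPTG and 0.2% rhamnose, with or without 25 μg/mL kanamycin, incubated overnight at 37°C or 30°C. The E. coli BL21(DE3) library had all eight P1ex-region intron nucleotides randomised, the intron placed in the knt kanamycin-resistance gene on pET-22b(+). DiMSum fitness is the error-weighted combination of replicate fold changes, kanamycin against none, normalised to wild type.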

| Sequence | self-splicing fitness (ln) (30 °C) | self-splicing fitness (ln) (37 °C) |
| --- | --- | --- |
| UGAGAGCAAUAUUACGGAUC | -1.94 ± 0.25 | -2.32 ± 0.49 |
| GGCAAGCAAUAUUACGGCUG | -1.68 ± 0.1 | -0.318 ± 0.16 |
| GAAAAGCAAUAUUACGUUUC | -2.95 ± 0.17 | -2.69 ± 0.25 |
| GCGAAGCAAUAUUACGCAUG | -3.12 ± 0.44 | -2.76 ± 0.24 |
| GAACAGCAAUAUUACGGUUU | -3.41 ± 0.13 | -1.34 ± 0.14 |
| CUCUAGCAAUAUUACGGUUG | -1.83 ± 0.12 | -0.869 ± 0.14 |
| CAGAAGCAAUAUUACGCCAA | -3.35 ± 0.38 |  |
| CUGCAGCAAUAUUACGAAGU | -4.26 ± 0.34 |  |
| AAAUAGCAAUAUUACGUUUU | -2.81 ± 0.11 | -1.05 ± 0.099 |
| UCUCAGCAAUAUUACGUUCA | -2.49 ± 0.14 | -1.15 ± 0.14 |
| AAGAAGCAAUAUUACGACCA | -0.349 ± 0.1 | -0.795 ± 0.2 |
| GGUUAGCAAUAUUACGUGGG | -2.93 ± 0.2 | -2.54 ± 0.18 |
| AUCGAGCAAUAUUACGUUCA | -0.62 ± 0.095 | -0.544 ± 0.13 |
| AUCGAGCAAUAUUACGGCCU | -3.22 ± 0.3 | -1.2 ± 0.17 |
| CUGUAGCAAUAUUACGUUGU | -3.59 ± 0.25 | -4.02 ± 0.33 |
| GCGAAGCAAUAUUACGAACA | -1.49 ± 0.34 | -1.16 ± 0.29 |
| GACUAGCAAUAUUACGUUGA | -2.07 ± 0.21 | -1.59 ± 0.15 |
| AUGGAGCAAUAUUACGUGGA | -4.25 ± 0.4 | -1.78 ± 0.29 |
| AUGGAGCAAUAUUACGUGGC | -2.39 ± 0.29 | -2.39 ± 0.38 |
| UCUAAGCAAUAUUACGUGUC | -4.21 ± 0.36 |  |

| Sequence | self-splicing fitness (ln) (30 °C) | self-splicing fitness (ln) (37 °C) |
| --- | --- | --- |
| GUCUAGCAAUAUUACGGAAC | -1.15 ± 0.26 | 1.15 ± 0.16 |
| CUAGAGCAAUAUUACGGGAG | -0.494 ± 0.052 | -0.0261 ± 0.075 |
| CUUGAGCAAUAUUACGACCG | -1.68 ± 0.19 | -1.16 ± 0.26 |
| UCUGAGCAAUAUUACGCCGU | -3.13 ± 0.48 | -1.56 ± 0.36 |
| CGGUAGCAAUAUUACGCUUU | -3.21 ± 0.27 | -0.482 ± 0.12 |
| CAUAAGCAAUAUUACGAUGG | 0.0378 ± 0.065 | -0.159 ± 0.093 |
| CCAUAGCAAUAUUACGCUGG | -3.54 ± 0.19 | -2.58 ± 0.2 |
| AUUUAGCAAUAUUACGGCGG | -2.31 ± 0.17 | -0.525 ± 0.17 |
| AGGAAGCAAUAUUACGCAGA | -3.5 ± 0.31 | -1.33 ± 0.14 |
| AACAAGCAAUAUUACGGCCG | -0.739 ± 0.12 | 0.121 ± 0.15 |
| GAGUAGCAAUAUUACGAGGU | -2.24 ± 0.35 |  |
| AACCAGCAAUAUUACGGCCC | 0.0145 ± 0.12 | 0.0337 ± 0.099 |
| ACGCAGCAAUAUUACGGUUA | -1.13 ± 0.077 | -1.04 ± 0.062 |
| UUCCAGCAAUAUUACGGUCU | -2.54 ± 0.33 | -2.13 ± 0.3 |
| ACACAGCAAUAUUACGGUAG | -4 ± 0.17 | -3.1 ± 0.15 |
| GGAAAGCAAUAUUACGUGGU | -3.11 ± 0.18 | -1.9 ± 0.16 |
| CCCCAGCAAUAUUACGGCGU | -2.22 ± 0.073 | -1.81 ± 0.1 |
| CAACAGCAAUAUUACGACCG | 0.0339 ± 0.079 | -0.239 ± 0.081 |
| CGGCAGCAAUAUUACGUCAC | -3.84 ± 0.25 | -2.81 ± 0.29 |
